From patent US20150337019A1 (MANUKAMED HOLDINGS LIMITED PARTNERSHIP, published 2015)
Like-named read-outs stand apart in the source and are kept apart here. Each block holds one binder with its values, some of them ahead of it. The star is where a group is joined. TNBS = trinitrobenzene sulphonic acid, N-terminal block, O=[N+]([O-])c1cc([N+](=O)[O-])c(*)c([N+](=O)[O-])c1; pNA = O=[N+]([O-])c1ccc(N*)cc1

Tests used:
Experiment in all cases: cell-based or functional assay
[1] = target: T1, Cathepsin B from bovine spleen (bovine, UniProt P07688 80-332)
[2] = target: T1, Cathepsin B from bovine spleen; remark: listed apart in the source
[3] = target: T1, Cathepsin B from bovine spleen; remark: listed apart in the source
[4] = target: T1, Cathepsin B from bovine spleen; remark: listed apart in the source
[5] = target: T1, Cathepsin B from bovine spleen; remark: listed apart in the source

Cathepsin B inhibition test, 2 mM peptide [1]: 99.3
B1: TNBS-FAK-pNA (peptide)
peptide: {TNBS}-Phe-Ala-Lys-pNA
SMILES: C[C@H](NC(=O)[C@H](Cc1ccccc1)Nc1c([N+](=O)[O-])cc([N+](=O)[O-])cc1[N+](=O)[O-])C(=O)N[C@@H](CCCCN)C(=O)Nc1ccc([N+](=O)[O-])cc1

Cathepsin B inhibition test, 2 mM peptide [2]: 92.7
Binder: Ac-Leu-Val-Lys-NH2 [Ac-LVK-NH2]

Cathepsin B inhibition test, 2 mM peptide [1]: 143
Binder: H-Met-Thr-Arg-OH [H-MTR-OH]

Cathepsin B inhibition test, 2 mM peptide [3]: 133
Binder: Ac-KISI-OH [Ac-KISI-OH]

Cathepsin B inhibition test, 2 mM peptide [4]: 122
Binder: Ac-QNDNK-OH (also: MGO-modified, site not given here) [MGO-modified Ac-QNDNK-OH]

Cathepsin B inhibition test, 2 mM peptide [4]: 162
Binder: Ac-QNDNR-OH [Ac-QNDNR-OH]

Cathepsin B inhibition test, 2 mM peptide [5]: 87.5
Binder: Ac-NQKNNN-OH (also: MGO-modified, site not given here) [MGO-modified Ac-NQKNNN-OH]

Cathepsin B inhibition test, 2 mM peptide [5]: 123
Binder: Ac-NQKNNNQNDN-OH (also: MGO-modified, site not given here) [MGO-modified Ac-NQKNNNQNDN-OH]

Cathepsin B inhibition test, 2 mM peptide [4]: 85
Binder: H-QNGNR-OH (also: MGO-modified, site not given here) [MGO-modified H-QNGNR-OH]

Cathepsin B inhibition test, 2 mM peptide [1]: 119
Binder: Ac-Met-Thr-Arg-OH (also: MGO-modified, site not given here) [MGO-modified Ac-MTR-OH]

Cathepsin B inhibition test, 2 mM peptide [2]: 142
Binder: Ac-Leu-Leu-Lys-OH [Ac-LLK-OH]

Cathepsin B inhibition test, 2 mM peptide [2]: 137
Binder: Ac-Leu-Leu-Lys-NH2 (also: MGO-modified, site not given here) [MGO-modified Ac-LLK-NH2]

Cathepsin B inhibition test, 2 mM peptide [5]: 290
Binder: Ac-NQKNNNQN-OH [Ac-NQKNNNQN-OH]

Cathepsin B inhibition test, 2 mM peptide [1]: 121
Binder: Ac-Cys-Asp-Arg-OH [Ac-CDR-OH]

Cathepsin B inhibition test, 2 mM peptide [2]: 65.4
Binder: Ac-Leu-Ile-Arg-NH2 [Ac-LIR-NH2]

Cathepsin B inhibition test, 2 mM peptide [4]: 171
Binder: H-QNGNK-OH [H-QNGNK-OH]

Cathepsin B inhibition test, 2 mM peptide [4]: 119
Binder: H-QNGNK-OH (also: MGO-modified, site not given here) [MGO-modified H-QNGNK-OH]

Cathepsin B inhibition test, 2 mM peptide [3]: 152
Binder: Ac-PFKI-OH [Ac-PFKI-OH]

Cathepsin B inhibition test, 2 mM peptide [2]: 148
Binder: Ac-Leu-Leu-Lys-OH (also: MGO-modified, site not given here) [MGO-modified Ac-LLK-OH]

Cathepsin B inhibition test, 2 mM peptide [2]: 72.6
Binder: Ac-Leu-Ile-Arg-NH2 (also: MGO-modified, site not given here) [MGO-modified Ac-LIR-NH2]

Cathepsin B inhibition test, 2 mM peptide [2]: 80
Binder: Ac-Leu-Val-Lys-NH2 (also: MGO-modified, site not given here) [MGO-modified Ac-LVK-NH2]

Cathepsin B inhibition test, 2 mM peptide [2]: 128
Binder: Ac-Leu-Ile-Arg-OH [Ac-LIR-OH]

Cathepsin B inhibition test, 2 mM peptide [5]: 147
Binder: Ac-NQKNNN-OH [Ac-NQKNNN-OH]

Cathepsin B inhibition test, 2 mM peptide [5]: 254
Binder: Ac-NQKNNNQNDN-OH [Ac-NQKNNNQNDN-OH]

Cathepsin B inhibition test, 2 mM peptide [1]: 122
Binder: {TNBS}-Phe-Ala-Lys-pNA (also: MGO-modified, site not given here) [MGO-modified TNBS-FAK-pNA]

Cathepsin B inhibition test, 2 mM peptide [4]: 104
Binder: H-QNDNK-OH [H-QNDNK-OH]

Cathepsin B inhibition test, 2 mM peptide [1]: 69.2
Binder: Ac-Met-Gln-Lys-OH (also: MGO-modified, site not given here) [MGO-modified Ac-MQK-OH]

Cathepsin B inhibition test, 2 mM peptide [5]: 102
Binder: Ac-NQKN-OH (also: MGO-modified, site not given here) [MGO-modified Ac-NQKN-OH]

Cathepsin B inhibition test, 2 mM peptide [5]: 150
Binder: Ac-Lys-Asn-OH [Ac-KN-OH]

Cathepsin B inhibition test, 2 mM peptide [4]: 88.7
Binder: Ac-QNGNR-OH (also: MGO-modified, site not given here) [MGO-modified Ac-QNGNR-OH]

Cathepsin B inhibition test, 2 mM peptide [2]: 0.07
Binder: Ac-Leu-Ile-Arg-OH (also: MGO-modified, site not given here) [MGO-modified Ac-LIR-OH]

Cathepsin B inhibition test, 2 mM peptide [1]: 96
Binder: H-Cys-Asp-Arg-OH (also: MGO-modified, site not given here) [MGO-modified H-CDR-OH]

Cathepsin B inhibition test, 2 mM peptide [3]: 91.5
Binder: Ac-PFKI-OH (also: MGO-modified, site not given here) [MGO-modified Ac-PFKI-OH]

Cathepsin B inhibition test, 2 mM peptide [2]: 80.8
Binder: Ac-Leu-Val-Lys-OH (also: MGO-modified, site not given here) [MGO-modified Ac-LVK-OH]

Cathepsin B inhibition test, 2 mM peptide [5]: 282
Binder: Ac-NQKN-OH [Ac-NQKN-OH]

Cathepsin B inhibition test, 2 mM peptide [4]: 101
Binder: Ac-QNGNR-OH [Ac-QNGNR-OH]

Cathepsin B inhibition test, 2 mM peptide [4]: 132
Binder: Ac-QNDNR-OH (also: MGO-modified, site not given here) [MGO-modified Ac-QNDNR-OH]

Cathepsin B inhibition test, 2 mM peptide [5]: 171
Binder: Ac-NQKNNNQN-OH (also: MGO-modified, site not given here) [MGO-modified Ac-NQKNNNQN-OH]

Cathepsin B inhibition test, 2 mM peptide [2]: 159
Binder: Ac-Leu-Leu-Lys-NH2 [Ac-LLK-NH2]

Cathepsin B inhibition test, 2 mM peptide [1]: 121
Binder: Ac-Met-Gln-Lys-OH [Ac-MQK-OH]

Cathepsin B inhibition test, 2 mM peptide [1]: 165
Binder: H-Cys-Asp-Arg-OH [H-CDR-OH]

Cathepsin B inhibition test, 2 mM peptide [4]: 187
Binder: Ac-QNGNK-OH [Ac-QNGNK-OH]

Cathepsin B inhibition test, 2 mM peptide [1]: 78.5
Binder: Ac-Cys-Asp-Arg-OH (also: MGO-modified, site not given here) [MGO-modified Ac-CDR-OH]

Cathepsin B inhibition test, 2 mM peptide [4]: 74.4
Binder: H-QNGNR-OH [H-QNGNR-OH]

Cathepsin B inhibition test, 2 mM peptide [2]: 144
Binder: Ac-Leu-Val-Lys-OH [Ac-LVK-OH]

Cathepsin B inhibition test, 2 mM peptide [4]: 68.4
Binder: H-QNDNK-OH (also: MGO-modified, site not given here) [MGO-modified H-QNDNK-OH]

Cathepsin B inhibition test, 2 mM peptide [3]: 92.8
Binder: Ac-KISI-OH (also: MGO-modified, site not given here) [MGO-modified Ac-KISI-OH]

Cathepsin B inhibition test, 2 mM peptide [3]: 149
Binder: Ac-KISIHL-OH [Ac-KISIHL-OH]

Cathepsin B inhibition test, 2 mM peptide [4]: 162
Binder: H-QNDNR-OH [H-QNDNR-OH]

Cathepsin B inhibition test, 2 mM peptide [1]: 126
Binder: Ac-Met-Thr-Arg-OH [Ac-MTR-OH]

Cathepsin B inhibition test, 2 mM peptide [1]: 99.5
Binder: H-Met-Gln-Lys-OH (also: MGO-modified, site not given here) [MGO-modified H-MQK-OH]

Cathepsin B inhibition test, 2 mM peptide [4]: 167
Binder: Ac-QNDNK-OH [Ac-QNDNK-OH]

Cathepsin B inhibition test, 2 mM peptide [4]: 89.2
Binder: Ac-QNGNK-OH (also: MGO-modified, site not given here) [MGO-modified Ac-QNGNK-OH]

Cathepsin B inhibition test, 2 mM peptide [1]: 104
Binder: H-Met-Thr-Arg-OH (also: MGO-modified, site not given here) [MGO-modified H-MTR-OH]
